In assay [1] the target is Cofilin-1 (human) (UniProt P23528). Briefly: SPR.
Assay [2] has as its target Ubiquitin carboxyl-terminal hydrolase isozyme L1 (human) (UniProt P09936). Briefly: SPR. A general note: SPR reads the build-up and loss of mass on a sensor chip optically.

Here are results for one substance from paper doi:10.1101/2022.10.06.511078.

Broadly, the Kd is the constant that tells how readily two partners part at equilibrium. A higher Kd goes with lower affinity.

Sequence of Ubiquitin carboxyl-terminal hydrolase isozyme L1 (human) (P09936 whole entry): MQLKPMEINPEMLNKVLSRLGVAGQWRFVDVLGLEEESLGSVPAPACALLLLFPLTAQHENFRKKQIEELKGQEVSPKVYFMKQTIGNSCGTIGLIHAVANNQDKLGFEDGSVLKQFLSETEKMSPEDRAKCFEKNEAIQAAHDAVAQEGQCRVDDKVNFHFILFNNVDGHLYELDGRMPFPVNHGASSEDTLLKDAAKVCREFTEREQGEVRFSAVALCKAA
Sequence of Cofilin-1 (human) (P23528 whole entry): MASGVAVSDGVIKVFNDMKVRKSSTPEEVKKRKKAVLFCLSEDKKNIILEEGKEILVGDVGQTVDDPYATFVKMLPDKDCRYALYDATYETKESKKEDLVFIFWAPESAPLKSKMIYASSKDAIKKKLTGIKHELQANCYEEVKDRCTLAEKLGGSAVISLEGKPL

In the case of “α-synuclein oligomer (from UniProt P37840 1-140) (natural protein)”, the results for the Kd in assay [1] and in assay [2] were 290 nM and 600 nM, respectively.
